We go through 41 sequences from the nanobody polyreactivity screen of Harvey et al. (2022).

The data set in a line: yeast display, Sf9 membrane polyspecificity reagent, FACS + sequencing; frameworks hold sequencing errors. The method in brief: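 Polyreactivity labels are assigned by the sorting gate from which each nanobody was recovered. The gates were low and high (top ~1%), set on anti-HA fluorescence for expression and streptavidin fluorescence for reagent binding. Before sorting, galactose-induced (36–48 hours) yeast display cells were stained for 1 hour at 4 °C with 10% biotinylated, detergent-solubilized Sf9 membrane reagent.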
As to “QVQLVESGGGLVQAGGSLLLSSAASGFTFGNNDMGWYRKSHGKERELVDAITKRGSSTYYADSVKGRFTISRDNAKNTVYLQMNSLKPEDTAVYHCAASWLGASGIRYDYWGQGTLVTVSS”, the “polyreactivity (PSR sort gate)” value is “high polyreactivity”.

For “QVQLVESGGGLVQAGGSLLLSSAASGSTLVYYTMGRYIPAPGKERELVAGITGSGGSTYYADSVKGRFTISRDNAKNTVYLQMNILIPEDTAVYYCAKRGFRSYHYIRGVYYWGQGTQVTVSS”, the “polyreactivity (PSR sort gate)” value is listed as “low polyreactivity”.

As to “QVQLVESGGGLVQAGGSLPLSCAASGFIFPGYAMGWYRQAPGKERELVAVISSRGGSTKYADSVKGRFTISRDNANYSVYLQMNSLNPEDTAVYYCAAARAPRKYDSWGQGTQVTVSS”, the “polyreactivity (PSR sort gate)” value was “high polyreactivity”.

With “QVQLVESGGGLVQAGGSLPLSCAASGFIFTSNAMGWYRQAPGKERELVASISGNGGRTNYADSVKGRFTISRDNAKNTVYLQMNSLKPDDTAVYYCAARVRRFLNRVSRYPHDYWGQGTQVTVSS”, the “polyreactivity (PSR sort gate)” value is recorded as “high polyreactivity”.

In the case of “QVQLVESGGGLVQAGGSLPLSCAASGFIYGGNAMGWYRQAPGKERELVAAISKSGGRTYYADSVKGRFTISRDNAKNTVYLQMNSLKPEDTAVYYCAAVPGRTAEDYGEDYWGQGTEVTVSS”, the “polyreactivity (PSR sort gate)” value is recorded as “high polyreactivity”.

As for “QVQLVESGGGLVQAGGSLPLSCAASGITFHRYAMGWDRQAPGKERELVAAMSRGASTNYADSVKGRFTISRDNAKNTVYLQMNSLKPEDTAVYYCAARTIGWYSGSRFDYWGQCTQVTVSS”, the “polyreactivity (PSR sort gate)” value is “high polyreactivity”.

For the sequence “QVQLVESGGGLVQAGGSLPLSCAASGITFRYYAMGWYRQAPGKERELVAAITRGGRTNYADSVKGRFTISRDNAKNTVYLQMNSLKPEDTAVYYCATGRDSNFGNSYYYWGQGTQVTVSS”, the “polyreactivity (PSR sort gate)” value is on record as “high polyreactivity”.

On to “QVQLVESGGGLVQAGGSLPLSCAASGRIFNSNAMGWYRQAPGKERELVAAIPISGSTNYADSVKGRFTISRDNAKNTVYFQMNSLKPEDTAVYYCAAQRTSHGRGVNGYVKYGYWGQGTIVTVSS”, for which the “polyreactivity (PSR sort gate)” value is on record as “high polyreactivity”.

In the case of “QVQLVESGGGLVQAGGSLPLSCAASGRIYGGNVMGWYRQAPGKERELVAAISKRGDSTYYADSVKGRFTISRDNAKNTVYLQMNSLKPEDTAVYYCAAVRRGDRGTDMDYWGQGTQVTVSS”, the “polyreactivity (PSR sort gate)” value was “high polyreactivity”.

Consider “QVQLVESGGGLVQAGGSLPLSCAASGRTFGENAMGWYRQAPGKERELVAAITSGARTYYADSVKGRFTISRDNAKNTVYLQMNSLKPEDTAVYYCAKAYRRFSGGAGKQGGYYWGQGTQVTVSS”, for which the “polyreactivity (PSR sort gate)” value was “high polyreactivity”.

Regarding “QVQLVESGGGLVQAGGSLPLSCAASGRTFPVYAMGWYRQAPGKERELVARINSGGRTTDADSVKGRFTISRDNAKNTVYLPKNSLKPEDSAVYYCNADSTYFRFDYWGQGTQVTVSS”, the “polyreactivity (PSR sort gate)” value is listed as “high polyreactivity”.

For “QVQLVESGGGLVQAGGSLPLSCAASGRTFWDNAMGWYRQAPGKERELVATITSGDSTNYADSVKWRFTISRDNAKNTVYLQMNSLKPEDTAVYDCARVIVFDAYEFDYWGQGTQVTVSS”, the “polyreactivity (PSR sort gate)” value is reported as “low polyreactivity”.

Turning to “QVQLVESGGGLVQAGGSLPLSCAASGRTINTNAMGWSRQAPGKERELVAAISGGGSTYADSVKGRFTISRDNAKNTVYLQMNSLKPEDTAVYYCAAQNVWIYGFWRDYWGQGTQVTVSS”, the “polyreactivity (PSR sort gate)” value is listed as “low polyreactivity”.

With “QVQLVESGGGLVQAGGSLPLSCAASGSTFAVYAMGWYRQAPGKERELVAAISFSGSTYADSVKGRFTISRDNAKNTVYLQMNSLKPEDTAVYYCAKEYRVFGWWYTKGDYWGQGTQVTVSS”, the “polyreactivity (PSR sort gate)” value is given as “low polyreactivity”.

Consider “QVQLVESGGGLVQAGGSLPLSCAASGSTFLAYAMGWYRQAPGKERELVAAITWNSGSSTFYADSVKGRFTISRDNAKNTVYLQMNSLKPEDTAVYYCNADVPSPAYYGDGTPYREDNYWGQGTQVTVSS”, for which the “polyreactivity (PSR sort gate)” value is reported as “low polyreactivity”.

Consider “QVQLVESGGGLVQAGGSLPLSCAASGSTFTYYAMGWYRKAPGKEGELVARITWTGGRTYYADSVKGRFTISRGNAKNTVYLQMNSVKTEDTAVYYCNALPYFFETQYDYWGQGTQVTVSS”, for which the “polyreactivity (PSR sort gate)” value is on record as “low polyreactivity”.

Consider “QVQLVESGGGLVQAGGSLRFSCAASGFIFYRNTMGWYRQAPGKEREFVAAIRWRGGSTYYADSVKGRFTISRDNAKNTVYLQMNSLKPEDTAVYYCAADTRPGYSGFVYWGQGTQVTVSS”, for which the “polyreactivity (PSR sort gate)” value was “high polyreactivity”.

In the case of “QVQLVESGGGLVQAGGSLRFSCAASGFIFYYYDMGWYRQAPGKERELVATISRGGSTYYADSVKGRFTISRDNAKNTVYLQMNSLKPEDTAVYYCAAYRSFGYRNWNRFDYWGQGTQVTVSS”, the “polyreactivity (PSR sort gate)” value is on record as “high polyreactivity”.

Regarding “QVQLVESGGGLVQAGGSLRFSCAASGFTFSHYAMGWYRQAPGQERELVAAITWSGGSTYYADSVKGRFTISRDNEKNTVYLQLNSVKPEDTAVYYCAAESYRDGVDYWGQGTQVTVSS”, the “polyreactivity (PSR sort gate)” value is “high polyreactivity”.

As to “QVQLVESGGGLVQAGGSLRFSCAASGFTFYEYAMGWYRQAPGKERELVAAINWNGGRTYYADSVKGRFTISRDNAKNTVYLQMNSLKPEDTAVYYCAARVAPKTKISRRYYWGQGTQVNVSS”, the “polyreactivity (PSR sort gate)” value is given as “high polyreactivity”.

With “QVQLVESGGGLVQAGGSLRFSCAASGFTFYVYAMGWYRHAPGKERELVAAISKSGGSTYYSDSVKGRFTISRDNAKNTVYLQMNSLKPEDTAVYYCAVYDKRSGYRGGHRYNSWGQGTQVTVSS”, the “polyreactivity (PSR sort gate)” value is “high polyreactivity”.

As to “QVQLVESGGGLVQAGGSLRFSCAASGFTLQQYTMGWYRQAPGKERELVAAISTSGVRTYYADSVKGRFTISRDNAKNTVYLQMNSLKPEDTAVYYCNAAWVYGIGWYSGYDYWGQGTQVTVSS”, the “polyreactivity (PSR sort gate)” value is recorded as “high polyreactivity”.

For the sequence “QVQLVESGGGLVQAGGSLRFSCAASGLYYYAMGWYRQAPGKERALVAVITYSGGSTYYADSVKGRFTISRDNGKNSVYLQMNSLKPEDTAVYNCAAEDYYVALPGLYDYWGQGTQVTVSS”, the “polyreactivity (PSR sort gate)” value is listed as “low polyreactivity”.

Regarding “QVQLVESGGGLVQAGGSLRFSCAASGNIFVVYTMGWDRQAPGKERELVADITSIGTSTYYADSVKGRFTISRDNAKNTVYLQMNSLKPEDTAVYYCNKDGSVWGKYTEYYWGQGTQVTVAS”, the “polyreactivity (PSR sort gate)” value is listed as “low polyreactivity”.

In the case of “QVQLVESGGGLVQAGGSLRFSCAASGRIIEQNAMGWYIQAPGKERELVATITRRGGRTYYADSVKGRFTISRDNAKNTVYLQMNSLKPEDTAVYYCNQVSYARGYDYWGQGTQVTVSS”, the “polyreactivity (PSR sort gate)” value is “high polyreactivity”.

On to “QVQLVESGGGLVQAGGSLRFSCAASGRTFRYYAMRWYRQAPGKERELVADISSTGRTYYADSVKGRFTISRDNAKNTVYLQMNSLNPEDSAVYYCAADYYSTYRTIYYYWGQGTQVSVSS”, for which the “polyreactivity (PSR sort gate)” value was “low polyreactivity”.

Regarding “QVQLVESGGGLVQAGGSLRFSCAASGSIFDIYGMGWYRQAPGKESELVASISGGAGSTNYADSVKGRFTISRDYAKNTVYLQMNSLKPEDTAVYYCAAVCADPTEYDYWGQGTQVTVSS”, the “polyreactivity (PSR sort gate)” value was “low polyreactivity”.

Turning to “QVQLVESGGGLVQAGGSLRFSCAASGSTFGFNAMGWYRQAPGKERELLPLFWSGGSTYYADSVNGRFTISRDNAKNSVYLQMNSLKPDDTAVYYCNKDSTPITRYDYWGQGTQVTVSS”, the “polyreactivity (PSR sort gate)” value is given as “low polyreactivity”.

For “QVQLVESGGGLVQAGGSLRFSCAASGSTFIGYDMGWYRQEPGKERELVAAISYSDGTYYAESVKGRFTISRDNAKNTVYLQMNSLNPEDTAVYYCAADSLYYRYDYWGQGTQVTVSS”, the “polyreactivity (PSR sort gate)” value was “low polyreactivity”.

In the case of “QVQLVESGGGLVQAGGSLRFSCAASGSTFVYYGMGWDRQAPGKERELVAAITDIGDSTNYADSVKGRFTISRDNAKNTVYLQMNSLKPEDTAVYYCAASGRSVPYYGSPRNDYWGQGTQVTVSS”, the “polyreactivity (PSR sort gate)” value is on record as “low polyreactivity”.

Regarding “QVQLVESGGGLVQAGGSLRFSCAASGSTTYRYAMGWYRQAPGKERELVAAISSRGGSTYYADSVKGRFTISRDNAKNTVYLQMNSLKPEDTAVYYCAVKDRYSFRYDYWGQGTQVTVSS”, the “polyreactivity (PSR sort gate)” value is “high polyreactivity”.

On to “QVQLVESGGGLVQAGGSLRFSCAASGYIFYKYAMGWYRHAPGKERELVAAIRRSGGSTYYADSVKGRFTISRDNAKNTVYLQMNSLKPEDTAVYYCAARYFRGSYPMGYWGQGTQVTVSS”, for which the “polyreactivity (PSR sort gate)” value is listed as “high polyreactivity”.

Consider “QVQLVESGGGLVQAGGSLRFSCAAYGFIFTQYAMGCYRRAPGKERELVAAISWNGGRTYYADSVNGRFTISRDNEKNTVYLQMNSLKPEDTAVYYCAARIYLSKSFNYWGQGTQVTVSS”, for which the “polyreactivity (PSR sort gate)” value is “high polyreactivity”.

With “QVQLVESGGGLVQAGGSLRFSSAASGSIFGTYVMGWYRQAPGKERELVAAISWSGGSTYYADSVKGRFTISRDNAKNTVYLQMNSLKPEDTAVYYCAADSIRFEYEYWGQGTQVTVSS”, the “polyreactivity (PSR sort gate)” value is given as “high polyreactivity”.

As for “QVQLVESGGGLVQAGGSLRFSWAASGFIFRSNAMGWYRQAPGKERELVAAISKSGGSTYYADSVKGRFTISRDTAKKTVYLQMNSLKPEDTAVYYCFVDYYPYDYWGQGTQVTVSS”, the “polyreactivity (PSR sort gate)” value was “low polyreactivity”.

Turning to “QVQLVESGGGLVQAGGSLRIICAASGRTFDRYAMRGYRQAPGKERELVAASTRRGTTTYYADSVKVRFSISRDYAKNTVYLQMYSLKPEDTAVYYCAAKRGCVSRPDYGANDESWGQGTQVTVSS”, the “polyreactivity (PSR sort gate)” value is reported as “high polyreactivity”.

In the case of “QVQLVESGGGLVQAGGSLRIICAASGSIFARNAMGWYRQAPGKERELVASITWSGASTYDADSVKGRFTISRDNAMNTVYLQMNSLKPEDTAVYYCAATDQILSLDYSSYEYLGQGTQVTVSS”, the “polyreactivity (PSR sort gate)” value was “low polyreactivity”.

With “QVQLVESGGGLVQAGGSLRISCAASGCTFSFNAMGWYRPAPGKERELVAAITTADSTYYADSVKGRFTISRDNAKNTGYFQMNSLKPEDTAVYYCAADAYWEYDYWGQGTQVTVSS”, the “polyreactivity (PSR sort gate)” value is recorded as “low polyreactivity”.

“QVQLVESGGGLVQAGGSLRISCAASGFICPQNTMGWYRQAPGTERELVAAITSCGSTYYADSVKGRFTISRDNGKNTVYLQMNSLKPEDTAVYYCAARPYGNWTYGYWGQGTQVTVSS”: the “polyreactivity (PSR sort gate)” value is on record as “low polyreactivity”.

Consider “QVQLVESGGGLVQAGGSLRISCAASGFIFDGYAMGWYRQAPGKERELVAAITYSGGSTYYADSLKGRFTISRDNAKNTVYLQMNRLKPEDTAVYYCNAEYSSFSVVQKDSDMDYWGQGTQVTVSS”, for which the “polyreactivity (PSR sort gate)” value is “low polyreactivity”.

For “QVQLVESGGGLVQAGGSLRISCAASGFIFRYYTMGWYRQAPGKERELVATITSGGSTYYADSVKGRFTISRDNAKNTVYLQMNSLKPEDTAVYYCAKVRDVLWRFNYWGQGTEVTVSS”, the “polyreactivity (PSR sort gate)” value is “high polyreactivity”.
